Target: human Claudin 18.2 (human)
Experiment: cell-based or functional assay

Row | Binder | IC50 (ng/ml), ADCC effect (FcrR3A-V158-NFAT-RE-Jurkat effector cells, Bright-Glo), NUGC4 cells with high expression of Claudin 18.2 | IC50 (ng/ml), ADCC effect (FcrR3A-V158-NFAT-RE-Jurkat effector cells, Bright-Glo), NUGC4 cells with low expression of Claudin 18.2 | IC50 (ng/ml), ADCC effect (FcrR3A-V158-NFAT-RE-Jurkat effector cells, Bright-Glo), NUGC4 cells with medium expression of Claudin 18.2
1 | IMAB-362 (antibody, human IgG1, kappa, V domains shown) VH: QVQLQQPGAELVRPGASVKLSCKASGYTFTSYWINWVKQRPGQGLEWIGNIYPSDSYTNYNQKFKDKATLTVDKSSSTAYMQLSSPTSEDSAVYYCTRSWRGNSFDYWGQGTTLTVSS VL: DIVMTQSPSSLTVTAGEKVTMSCKSSQSLLNSGNQKNYLTWYQQKPGQPPKLLIYWASTRESGVPDRFTGSGSGTDFTLTISSVQAEDLAVYYCQNDYSYPFTFGSGTKLEIKR | 133 ng/mL | 183 ng/mL | 210 ng/mL
2 | h1901-11 (antibody, human IgG1, kappa, V domains shown) VH: EVQLVESGGGLVQPGGSLRLSCAASGFTFSDYGIHWVRQAPGKGLEWIAYISRGSSTIYYADTVKGRFTISRDNAKNSLYLQMTSLRAEDTAVYYCARGGYDTRNAMDYWGQGTTVTVSS VL: DIVMTQSPDSLAVSLGERATISCKSSQSLLNSGNQKNYLAWYQQKPGQPPKLLIYGASTRASGVPDRFSGSGSGTDFTLTISSLQAEDVAIYHCQNDLYYPLTFGQGTKLEIKR | 26.2 ng/mL | 22.4 ng/mL | 15.3 ng/mL

Source: patent US20220185881A1 (JIANGSU HENGRUI MEDICINE, published 2022)
